Substrate in the data set: O=[Te](O)O
Kind of data set: purified protein. The following applies: NADPH 10 mM (50 µl of 0.2 M in 1 ml), Tris-HCl pH 8.0 (50 mM), aerobic.

B1: bovine liver catalase (Bos taurus) (protein)
chain: ADNRDPASDQMKHWKEQRAAQKPDVLTTGGGNPVGDKLNSLTVGPRGPLLVQDVVFTDEMAHFDRERIPERVVHAKGAGAFGYFEVTHDITRYSKAKVFEHIGKRTPIAVRFSTVAGESGSADTVRDPRGFAVKFYTEDGNWDLVGNNTPIFFIRDALLFPSFIHSQKRNPQTHLKDPDMVWDFWSLRPESLHQVSFLFSDRGIPDGHRHMNGYGSHTFKLVNANGEAVYCKFHYKTDQGIKNLSVEDAARLAHEDPDYGLRDLFNAIATGNYPSWTLYIQVMTFSEAEIFPFNPFDLTKVWPHGDYPLIPVGKLVLNRNPVNYFAEVEQLAFDPSNMPPGIEPSPDKMLQGRLFAYPDTHRHRLGPNYLQIPVNCPYRARVANYQRDGPMCMMDNQGGAPNYYPNSFSAPEHQPSALEHRTHFSGDVQRFNSANDDNVTQVRTFYLKVLNEEQRKRLCENIAGHLKDAQLFIQKKAVKNFSDVHPEYGSRIQALLDKYNEEKPKNAVHTYVQHGSHLSAREKANL
Take B1: the Km (as a rule, the substrate concentration at which the rate is half of its maximum) was 900 µM.
